# Results taken from patent US20250381281A1, “METHODS OF MANUFACTURING PEPTIDE-BASED VACCINES” (priority 2018, published 2025).
# Non-standard residues stand in square brackets, D forms with d. Primed or numbered codes have the meaning given here. No end group written: not given here. Lys(N3)′ = its azide, alkyne or alkene has reacted where a group follows in round brackets; DBCO′ = not defined here; F′ = aminophenylalanine; Ahx = NCCCCCC(=O)O
# Legend:
# [1] = system: CD8 T cell responses; test: CD8 T cell response of mice vaccinated with Adpgk peptide antigen conjugates, intracellular cytokine staining for IFN-g; format: in vivo, C57BL/6 mice; conditions: SC route; vaccinated day 0, 14, 28; whole blood
# Experimental: Mice were vaccinated on day 0, 14, and 28. CD8 T cell responses were measured on day 12, 21, and 35 from whole blood using an intracellular cytokine staining assay for IFN-g production;
# [2] = system: CD8 T cell responses; test: CD8 T cell response of mice vaccinated with Cpne1 peptide antigen conjugates, intracellular cytokine staining for IFN-g; format: in vivo, C57BL/6 mice; conditions: SC route; vaccinated day 0, 14, 28; whole blood
# Experimental: Mice were vaccinated on day 0, 14, and 28. CD8 T cell responses were measured on day 7, 21, 35, and 42 from whole blood using an intracellular cytokine staining assay for IFN-g production; and
# To evaluate the suitability of immunogenic compositions based on peptide antigen fragments comprising aryl amines, mice were either vaccinated with peptide antigen conjugates of formula C-B1-A-B2-L-H, either comprising a charged moiety with positive charge, […] Tyr-Ser-Pro-Val-Cit-Lys(N3-DBCO)-Glu(2B)-Trp-Glu(2B)-Trp-Glu(2B)—NH2 (SEQ ID NO: 76) or a charged moiety with negative charge and a B2 comprised of amino acids bearing aryl amines, i.e., Ac-Glu-Glu-Glu-Glu-Glu-Val-Cit-[…]Try-[…]Cit-Phe(NH2)-Phe(NH2)-Phe(NH2)-Phe(NH2)-Lys(N3-DBCO)-Glu(2B)-Trp-Glu(2B)-Trp-Glu(2B)—NH2 (SEQ ID NO: 42), wherein Phe(NH2) is para-amino-phenylalanine.
# [3] = Particle size and stability of amphiphilic carrier molecules by dynamic light scattering; format: physicochemical; conditions: PBS pH 7.4, 0.5 mg/mL, peptide-based linear carriers
# Experimental: This reaction scheme was used to prepare different compositions of amphiphilic carrier molecules that were characterized for the capacity to form stable nanoparticle micelles in aqueous buffer, PBS pH 7.4, at a concentration of 0.5 mg/mL of amphiphilic carrier molecule. The results of these studies are summarized below according to the chemical composition and architecture of the amphiphilic carrier molecule.
# A series of linear amphiphilic carriers of formula C-B-L-H, wherein the charged moiety (C) and spacer (B) comprises peptides, i.e., poly(lysine) and poly(serine-co-glycine), respectively, with varying hydrophobic block composition were evaluated for particle size and stability by dynamic light scattering. […]
Substance,"Size (diameter, nm) [3] [nm]",other results
"Ac-Glu-Glu-Glu-Glu-Glu-Glu-Glu-Val-Cit-Gly-Ile-Pro-Val-His-Leu-Glu-Leu-Ala-Ser-Met-Thr-Asn-Met-Glu-Leu-Met-Ser-Ser-Ile-Val- His-Gln-Gln-Val-Phe-Pro-Thr-Ser-Pro-Val-Cit-Phe(NH2)-Phe(NH2)-Phe(NH2)-Phe(NH2)-Lys(N3-DBCO)-Glu(2B)-Trp-Glu(2B)-Trp-Glu(2B)—NH2 (EEEEEEEVXGIPVHLELASMTNMELMSSIVHQQVFPTSPVXXXXXX; N-acetyl, citrulline, Phe(NH2), DBCO click, Glu(2B), amide; SITE 1 Wherein Glu is modified with an acetyl group at the N-terminus; SITE 9 citrulline (Cit); SITE 41 citrulline (Cit); SITE 42..45 para-amino-phenylalanine; SITE 46 azido-lysine (Lys(N3))) [SEQ ID NO: 40]",,CD8 T cell responses [1]: CD8 T cell responses were induced in all animals
"Ac-Glu-Glu-Glu-Glu-Glu-Val-Cit-Asp-Phe-Thr-Gly-Ser-Asn-Gly-Asp-Pro-Ser-Ser-Pro-Try-Ser-Leu-His-Tyr-Leu-Ser-Pro-Thr-Gly-Val-Asn-Glu-Tyr-Ser-Pro-Val-Cit-Phe(NH2)-Phe(NH2)-Phe(NH2)-Phe(NH2)-Lys(N3-DBCO)-Glu(2B)-Trp-Glu(2B)-Trp-Glu(2B)—NH2 (EEEEEVXDFTGSNGDPSSPYSLHYLSPTGVNEYSPVXXXXXX; acetyl, citrulline, DBCO click conjugate, amidated; SITE 1 Wherein Glu is modified with an acetyl group at the N-terminus; SITE 7 citrulline (Cit); SITE 37 citrulline (Cit); SITE 38..41 para-amino-phenylalanine.; SITE 42 azido-lysine (Lys(N3))) [SEQ ID NO: 42, negatively charged Cpne1 peptide antigen conjugate]",,"CD8 T cell responses detected in vaccinated animals [2]: detected in all vaccinated animals; CD8 T cell responses, tris salts of the negatively charged conjugate [2]: CD8 T cell responses were induced in all animals"
KKK-SGSGSGSGSGSGSGSGSGSGSGSG-(Lys(N3-DBCO))-Ahx-(F′)5: peptide-based linear amphiphilic carrier molecule C-B-L-H (chain 1 KKKSGSGSGSGSGSGSGSGSGSGSGSG[Lys(N3)′](DBCO′)[Ahx]; chain 2 [F′][F′][F′][F′][F′]; also: chain 2 (F′)5 follows Ahx of chain 1),1013,
KKK-SGSGSGSGSGSGSGSGSGSGSGSG-(Lys(N3-DBCO))-Ahx-(F′)10: peptide-based linear amphiphilic carrier molecule C-B-L-H (chain 1 KKKSGSGSGSGSGSGSGSGSGSGSGSG[Lys(N3)′](DBCO′)[Ahx]; chain 2 [F′][F′][F′][F′][F′][F′][F′][F′][F′][F′]; also: chain 2 (F′)10 follows Ahx of chain 1),3839,
KKK-SGSGSGSGSGSGSGSGSGSGSGSG-(Lys(N3-DBCO))-Ahx-(F′)20: peptide-based linear amphiphilic carrier molecule C-B-L-H (chain 1 KKKSGSGSGSGSGSGSGSGSGSGSGSG[Lys(N3)′](DBCO′)[Ahx]; chain 2 [F′][F′][F′][F′][F′][F′][F′][F′][F′][F′][F′][F′][F′][F′][F′][F′][F′][F′][F′][F′]; also: chain 2 (F′)20 follows Ahx of chain 1),1521,
"KKK-SGSGSGSGSGSGSGSGSGSGSGSG-(Lys(N3-DBCO))-Bis(Ahx-F′10)2: peptide-based linear amphiphilic carrier molecule C-B-L-H (chain 1 KKKSGSGSGSGSGSGSGSGSGSGSGSG[Lys(N3)′](DBCO′)[Ahx]; chain 2 [F′][F′][F′][F′][F′][F′][F′][F′][F′][F′]; also: two Ahx-F′10 arms, branching not given here, one arm shown)",2683,
KKKKKKK-SGSGSGSGSGSGSGSGSGSGSGSG-(Lys(N3-DBCO))-Ahx-(F′)5: peptide-based linear amphiphilic carrier molecule C-B-L-H,477,
KKKKKKK-SGSGSGSGSGSGSGSGSGSGSGSG-(Lys(N3-DBCO))-Ahx-(F′)20: peptide-based linear amphiphilic carrier molecule C-B-L-H,32,
"Lys-Lys-Lys-Lys-Lys-Lys-Lys-Lys-Lys-Val-Arg-Asp-Phe-Thr-Gly-Ser-Asn-Gly-Asp-Pro-Ser-Ser-Pro-Tyr-Ser-Leu-His-Tyr-Leu-Ser-Pro-Thr-Gly-Val-Asn-Glu- Tyr-Ser-Pro-Val-Cit-Lys(N3-DBCO)-Glu(2B)-Trp-Glu(2B)-Trp-Glu(2B)—NH2 (KKKKKKKKKVRDFTGSNGDPSSPYSLHYLSPTGVNEYSPVXX; citrulline, DBCO click conjugate, amidated; SITE 41 citrulline (Cit); SITE 42 azido-lysine (Lys(N3))) [SEQ ID NO: 76, positively charged Cpne1 peptide antigen conjugate]",,CD8 T cell responses detected in vaccinated animals [2]: detected in all vaccinated animals
